Values of other authors as cited in PMC4366142.

Target: muscle voltage-gated sodium channel (UniProt P15390)
Chain of UniProt P15390 (P15390 whole entry): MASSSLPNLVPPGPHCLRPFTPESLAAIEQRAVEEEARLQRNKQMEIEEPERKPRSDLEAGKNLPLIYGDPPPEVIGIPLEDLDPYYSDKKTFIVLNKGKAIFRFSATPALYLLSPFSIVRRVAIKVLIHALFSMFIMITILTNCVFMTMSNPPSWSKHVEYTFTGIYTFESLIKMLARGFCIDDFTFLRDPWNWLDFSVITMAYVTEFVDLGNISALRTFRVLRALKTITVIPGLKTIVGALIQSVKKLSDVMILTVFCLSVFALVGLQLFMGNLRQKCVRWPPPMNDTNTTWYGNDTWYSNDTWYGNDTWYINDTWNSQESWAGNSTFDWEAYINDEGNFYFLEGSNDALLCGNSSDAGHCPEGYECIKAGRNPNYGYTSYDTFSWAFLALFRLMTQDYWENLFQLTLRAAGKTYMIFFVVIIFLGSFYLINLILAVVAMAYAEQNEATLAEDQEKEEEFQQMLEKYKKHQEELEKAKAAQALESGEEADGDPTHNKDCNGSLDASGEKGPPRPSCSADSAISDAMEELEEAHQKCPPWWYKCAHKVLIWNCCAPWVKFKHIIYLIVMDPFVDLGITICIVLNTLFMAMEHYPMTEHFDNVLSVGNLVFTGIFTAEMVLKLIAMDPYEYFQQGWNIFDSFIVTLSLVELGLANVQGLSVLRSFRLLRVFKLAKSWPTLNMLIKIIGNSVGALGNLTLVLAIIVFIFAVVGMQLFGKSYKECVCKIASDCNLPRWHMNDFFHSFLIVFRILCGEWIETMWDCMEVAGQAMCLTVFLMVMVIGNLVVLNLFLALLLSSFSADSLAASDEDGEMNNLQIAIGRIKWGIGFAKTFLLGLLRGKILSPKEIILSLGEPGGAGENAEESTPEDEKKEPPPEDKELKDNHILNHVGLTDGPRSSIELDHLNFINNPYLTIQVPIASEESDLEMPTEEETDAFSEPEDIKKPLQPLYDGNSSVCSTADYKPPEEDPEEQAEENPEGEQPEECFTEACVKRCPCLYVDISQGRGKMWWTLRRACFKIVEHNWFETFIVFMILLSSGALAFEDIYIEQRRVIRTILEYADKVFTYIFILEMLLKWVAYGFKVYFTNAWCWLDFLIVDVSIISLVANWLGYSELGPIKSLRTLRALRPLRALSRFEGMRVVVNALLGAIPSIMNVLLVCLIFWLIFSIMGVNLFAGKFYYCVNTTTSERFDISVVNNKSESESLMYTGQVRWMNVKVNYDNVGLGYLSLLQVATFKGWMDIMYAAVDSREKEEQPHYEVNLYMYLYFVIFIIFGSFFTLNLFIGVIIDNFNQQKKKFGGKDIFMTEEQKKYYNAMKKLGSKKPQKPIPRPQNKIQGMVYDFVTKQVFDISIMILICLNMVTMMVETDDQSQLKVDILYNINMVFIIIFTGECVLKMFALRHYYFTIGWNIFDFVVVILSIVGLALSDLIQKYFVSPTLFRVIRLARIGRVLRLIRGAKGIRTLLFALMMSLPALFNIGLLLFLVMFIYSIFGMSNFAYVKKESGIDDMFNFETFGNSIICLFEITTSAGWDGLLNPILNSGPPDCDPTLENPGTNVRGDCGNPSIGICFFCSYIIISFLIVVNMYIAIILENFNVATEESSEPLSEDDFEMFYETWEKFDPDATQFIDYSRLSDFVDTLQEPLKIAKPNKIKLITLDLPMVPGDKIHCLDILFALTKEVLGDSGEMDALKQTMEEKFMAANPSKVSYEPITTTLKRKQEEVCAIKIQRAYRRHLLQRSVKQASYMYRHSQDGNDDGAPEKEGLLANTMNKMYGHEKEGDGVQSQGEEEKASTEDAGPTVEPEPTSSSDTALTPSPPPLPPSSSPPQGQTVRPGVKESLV

μ-conotoxin GIIIA (from UniProt P01523)
Kd: 25 nM
